Among the data in paper PMC9687312 are Kd values, retold here.

Assay [1] deals with DC-SIGN Biot-ECD (biotinylated extracellular domain of DC-SIGN) (UniProt Q9NNX6). The assay is described as follows: SPR.
The target in assay [2] is MGL Biot-ECD (biotinylated extracellular domain of MGL) (UniProt Q8IUN9). The assay can be described thus: SPR.
Chain of UniProt Q8IUN9 (Q8IUN9 61-316): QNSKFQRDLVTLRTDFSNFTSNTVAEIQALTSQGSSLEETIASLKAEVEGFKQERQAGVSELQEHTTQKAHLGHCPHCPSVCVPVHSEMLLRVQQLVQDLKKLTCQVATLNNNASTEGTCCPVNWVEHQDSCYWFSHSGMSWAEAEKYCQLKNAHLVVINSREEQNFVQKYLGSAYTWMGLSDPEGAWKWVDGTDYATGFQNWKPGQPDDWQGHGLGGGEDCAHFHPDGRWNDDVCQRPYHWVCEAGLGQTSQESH

Chain of UniProt Q9NNX6 (Q9NNX6 59-404): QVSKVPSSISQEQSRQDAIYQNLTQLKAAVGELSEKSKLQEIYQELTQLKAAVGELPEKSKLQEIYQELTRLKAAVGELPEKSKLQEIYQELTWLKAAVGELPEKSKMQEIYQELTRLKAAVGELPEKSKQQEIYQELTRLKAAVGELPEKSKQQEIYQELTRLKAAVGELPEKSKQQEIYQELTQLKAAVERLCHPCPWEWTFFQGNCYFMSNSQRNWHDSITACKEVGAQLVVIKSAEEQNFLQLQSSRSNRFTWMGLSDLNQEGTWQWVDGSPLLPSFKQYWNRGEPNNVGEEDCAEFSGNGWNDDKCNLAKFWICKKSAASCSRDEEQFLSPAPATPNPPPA

Consider “ADD KGE RBD (ADD-KGE/RBD-SC covalent complex) (from UniProt Q2Y0H9 1-544; P0DTC2 320-554)”, for which the Kd in assay [1] was 0.00034 µM; in assay [2] it was 0.0661 µM.
